In publication PMC8488656:

Biological target: colicin E7 (ColE7) (UniProt Q47112)
Test: ELISA

Chain of UniProt Q47112 (Q47112 whole entry): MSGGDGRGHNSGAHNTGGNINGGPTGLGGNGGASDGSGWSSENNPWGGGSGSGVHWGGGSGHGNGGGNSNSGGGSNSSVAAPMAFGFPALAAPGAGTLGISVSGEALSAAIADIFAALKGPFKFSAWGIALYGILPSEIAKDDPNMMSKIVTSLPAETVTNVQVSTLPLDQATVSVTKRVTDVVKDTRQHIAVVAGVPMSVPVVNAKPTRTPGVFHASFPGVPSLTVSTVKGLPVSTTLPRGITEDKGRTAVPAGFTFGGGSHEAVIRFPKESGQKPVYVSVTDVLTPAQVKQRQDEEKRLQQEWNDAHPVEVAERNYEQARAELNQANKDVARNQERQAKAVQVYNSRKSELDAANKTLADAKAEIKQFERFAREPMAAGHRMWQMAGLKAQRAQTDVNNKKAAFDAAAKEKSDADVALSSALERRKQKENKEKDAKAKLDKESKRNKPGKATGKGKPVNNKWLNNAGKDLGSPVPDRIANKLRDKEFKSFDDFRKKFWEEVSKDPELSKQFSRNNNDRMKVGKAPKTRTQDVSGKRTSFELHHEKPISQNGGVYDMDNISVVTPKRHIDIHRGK

In order of rising agly/ai (binding activity, glycosylated over aglycosylated variant):
1. YebF-Im7^N31, glycosylated (from UniProt Q03708 1-87) (natural protein)  0.55
2. YebF-Im7^N30, glycosylated (from UniProt Q03708 1-87) (natural protein)  1.36
3. YebF-Im7^N49, glycosylated (from UniProt Q03708 1-87) (natural protein)  1.91
4. YebF-Im7^N58, glycosylated (from UniProt Q03708 1-87) (natural protein)  3.44
